Data from article PMC8091128.

Target: T1, α-catenin (cleaved from GST–α-catenin), P35221
T1 chain: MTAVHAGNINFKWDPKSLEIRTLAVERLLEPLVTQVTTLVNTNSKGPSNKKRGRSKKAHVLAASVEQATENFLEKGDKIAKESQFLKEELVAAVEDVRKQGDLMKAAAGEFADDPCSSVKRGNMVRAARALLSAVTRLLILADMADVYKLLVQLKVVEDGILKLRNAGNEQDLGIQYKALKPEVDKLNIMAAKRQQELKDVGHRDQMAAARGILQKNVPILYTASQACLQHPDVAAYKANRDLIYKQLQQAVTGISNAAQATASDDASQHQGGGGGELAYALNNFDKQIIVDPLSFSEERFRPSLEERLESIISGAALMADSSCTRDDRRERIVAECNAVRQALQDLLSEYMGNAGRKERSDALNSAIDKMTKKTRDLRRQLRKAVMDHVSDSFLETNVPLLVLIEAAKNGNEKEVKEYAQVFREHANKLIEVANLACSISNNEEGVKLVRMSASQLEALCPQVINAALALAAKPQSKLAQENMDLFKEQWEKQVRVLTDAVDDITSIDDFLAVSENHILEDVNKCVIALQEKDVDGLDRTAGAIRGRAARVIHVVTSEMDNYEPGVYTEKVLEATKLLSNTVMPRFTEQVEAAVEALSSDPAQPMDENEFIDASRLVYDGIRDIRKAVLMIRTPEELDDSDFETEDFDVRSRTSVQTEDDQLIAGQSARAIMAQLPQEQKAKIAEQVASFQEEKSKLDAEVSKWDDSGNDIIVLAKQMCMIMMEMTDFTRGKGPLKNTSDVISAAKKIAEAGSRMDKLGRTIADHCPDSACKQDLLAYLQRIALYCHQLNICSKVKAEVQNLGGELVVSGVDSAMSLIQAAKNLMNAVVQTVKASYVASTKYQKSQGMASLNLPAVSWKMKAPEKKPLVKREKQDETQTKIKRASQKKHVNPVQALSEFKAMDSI
Assay: GST pull-down (in vitro reconstitution of cadherin complex), blot quantification
Conditions: chain shown with the change;; parent: est. 1.0; read off a plot

ratio to parent: 1.1 fold change
B1: GST–β-catenin WT, P35222 S675D (protein)
chain: MATQADLMELDMAMEPDRKAAVSHWQQQSYLDSGIHSGATTTAPSLSGKGNPEEEDVDTSQVLYEWEQGFSQSFTQEQVADIDGQYAMTRAQRVRAAMFPETLDEGMQIPSTQFDAAHPTNVQRLAEPSQMLKHAVVNLINYQDDAELATRAIPELTKLLNDEDQVVVNKAAVMVHQLSKKEASRHAIMRSPQMVSAIVRTMQNTNDVETARCTAGTLHNLSHHREGLLAIFKSGGIPALVKMLGSPVDSVLFYAITTLHNLLLHQEGAKMAVRLAGGLQKMVALLNKTNVKFLAITTDCLQILAYGNQESKLIILASGGPQALVNIMRTYTYEKLLWTTSRVLKVLSVCSSNKPAIVEAGGMQALGLHLTDPSQRLVQNCLWTLRNLSDAATKQEGMEGLLGTLVQLLGSDDINVVTCAAGILSNLTCNNYKNKMMVCQVGGIEALVRTVLRAGDREDITEPAICALRHLTSRHQEAEMAQNAVRLHYGLPVVVKLLHPPSHWPLIKATVGLIRNLALCPANHAPLREQGAIPRLVQLLVRAHQDTQRRTSMGGTQQQFVEGVRMEEIVEGCTGALHILARDVHNRIVIRGLNTIPLFVQLLYSPIENIQRVAAGVLCELAQDKEAAEAIEAEGATAPLTELLHSRNEGVATYAAAVLFRMSEDKPQDYKKRLDVELTSSLFRTEPMAWNETADLGLDIGAQGEPLGYRQDDPSYRSFHSGGYGQDALGMDPMMEHEMGGHHPGADYPVDGLPDLGHAQDLMDGLPPGDSNQLAWFDTDL
